Measurements as given in patent US9969998B2, “Compositions of adenosine deaminase-2 (ADA2), variants thereof and methods of using same” (Halozyme, Inc., priority 2014, dated 2018).
Substitutions are numbered along the chain they refer to. Names and notes keep the numbering of the source.

B1: S265N: ADA2 variant SEQ ID NO:54 (protein)
chain: IDETRAHLLLKEKMMRLGGRLVLNTKEELANERLMTLKIAEMKEAMRTLIFPPSMHFFQAKHLIERSQVFNILRMMPKGAALHLHDIGIVTMDWLVRNVTYRPHCHICFTPRGIMQFRFAHPTPRPSEKCSKWILLEDYRKRVQNVTEFDDSLLRNFTLVTQHPEVIYTNQNVVWSKFETIFFTISGLIHYAPVFRDYVFRSMQEFYEDNVLYMEIRARLLPVYELSGEHHDEEWSVKTYQEVAQKFVETHPEFIGIKIIYNDHRSKDVAVIAESIRMAMGLRIKFPTVVAGFDLVGHEDTGHSLHDYKEALMIPAKDGVKLPYFFHAGETDWQGTSIDRNILDALMLNTTRIGHGFALSKHPAVRTYSWKKDIPIEVCPISNQVLKLVSDLRNHPVATLMATGHPMVISSDDPAMFGAKGLSYDFYEVFMGIGGMKADLRTLKQLAMNSIKYSTLLESEKNTFMEIWKKRWDKFIADVATK
modifications: human ADA2 S262N, mature numbering
B2: WT ADA2: wild type recombinant human adenosine deaminase 2 with FLAG tag, mature ADA2 SEQ ID NO:5 (protein, listed as Homo sapiens)
chain: B1 chain with N262S
modifications: FLAG tag; ADA2 mature protein
B3: R23E: ADA2 variant SEQ ID NO:30 (protein)
chain: B1 chain with R20E, N262S
modifications: human ADA2 R20E, mature numbering
B4: K374E: ADA2 variant SEQ ID NO:21 (protein)
chain: B1 chain with N262S, K371E
modifications: human ADA2 K371E, mature numbering
B5: K374D: ADA2 variant SEQ ID NO:20 (protein)
chain: B1 chain with N262S, K371D
modifications: human ADA2 K371D, mature numbering
B6: PEG-K374D: rHuADA2-K374D (SEQ ID NO:20) PEGylated on surface exposed lysines with linear PEG-20K (conjugate)
chain: B1 chain with N262S, K371D
modifications: linear PEG-20K on surface lysines; human ADA2 K371D, mature numbering

Assay: Kinetic assessment of adenosine deaminase activity (ammonia assay, Michaelis-Menten)
Type: biochemical
Conditions: pH 6.5
How it was run: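 Coupled ammonia assay: rHuADA2 WT or variants (1 μg/mL, 17 nM in 2× mix) with adenosine 20 μM–20 mM, α-ketoglutarate, NADPH and GDH, at pH 7.6 or pH 6.5 (PIPES), room temperature. Michaelis-Menten fit gave Km, Vmax, kcat, kcat/Km.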

Molecule	Km
B1	1.49 mM
B2	3.66 mM

Same assay, conditions: pH 6.5; [E] = 8.5 nM

Molecule	Km	Vmax
B3	3.29 mM	37.16 µM/min
B4	3.18 mM	41.93 µM/min
B1	1.49 mM	45.79 µM/min
B2	3.66 mM	31.81 µM/min
B5	3.16 mM	42.98 µM/min

Same assay, conditions: pH 6.5; [E] = 8.5 nM; kcat=Vmax/0.0085/60

Molecule	kcat
B3	72.86 s⁻¹
B4	82.22 s⁻¹
B1	89.78 s⁻¹
B2	62.37 s⁻¹
B5	84.27 s⁻¹

Same assay, conditions: pH 7.6

Molecule	Km
B1	3.02 mM
B2	5.25 mM

Same assay, conditions: pH 7.6; [E] = 8.5 nM

Molecule	Km	Vmax
B3	5.06 mM	29.08 µM/min
B4	4.77 mM	35.13 µM/min
B1	3.02 mM	80.49 µM/min
B2	5.25 mM	26.09 µM/min
B5	4.88 mM	28.25 µM/min

Same assay, conditions: pH 7.6; [E] = 8.5 nM; kcat=Vmax/0.0085/60

Molecule	kcat
B3	57.02 s⁻¹
B4	68.88 s⁻¹
B1	157.82 s⁻¹
B2	51.16 s⁻¹
B5	55.39 s⁻¹

Same assay, conditions: pH 7.6 and pH 6.5

Molecule	kinetics properties compared to WT
B3	improved kinetics properties compared to WT
B4	improved kinetics properties compared to WT
B5	improved kinetics properties compared to WT

Assay: Heparin binding capture ELISA (biotin-heparin on streptavidin plate)
Conditions: PEGylated and non-PEGylated forms (Table 22)
Method: Heparin binding of PEGylated rHuADA2 or variants was assessed by capture ELISA. Binding of rHuADA1 was assessed as a negative control. 100 μL of 0.2 mg/mL biotin-heparin (Sigma-Aldrich, St. Louis, Mo.; Cat No. B9806-10MG) was added to a streptavidin coated 96-well plate (Thermo Fisher Scientific, Rockford, Ill.; Cat. No. 15520), and incubated at room temperature for 1 hour. The plate was washed 6 times with PBS. Then, 150 μL of […] rHuADA2 was added to the heparin coated plate, titrated in 3× serial dilutions, and incubated at room temperature for 2 hours. The plate was then washed 6 times with PBS. A 1000× dilution of goat HRP-anti-FLAG pAb (Abcam, Cambridge, UK; Cat. No. Ab1238) was added to the ELISA plate and incubated at room temperature for 1 hour. The ELISA plate was then washed 6 times with phosphate buffered saline with Tween (PBST) and developed with the 3,3′,5,5′-Tetramethylbenzidine (TMB) substrate solution (Pierce, Thermo Fisher Scientific, Rockford, Ill.) according the manufacturer's instructions and reading the optical density at 450 nm (OD450) on a plate reader.

Average OD450, heparin binding capture ELISA	Molecule
0.71	B3
0.15	B6
2.31	B2
0.87	B5

Assay: not given
Conditions: mouse, in vivo, iv, 7.5 mg/kg

Molecule	AUC (mU * h)/mL	Half life slow (t1/2)	Percent increase in AUC compared to WT ADA2	Percent increase in t1/2 compared to WT ADA2
B6	2,725,000 (mU * h)/mL	21.75 h	8187%	1791%
B5	74,983 (mU * h)/mL	3.8 h	128%	230%

Assay: Spectrophotometric adenosine deaminase assay at varying pH (pH optimum)
Type: biochemical
Conditions: pH 5.5
Method: Adenosine deaminase activity of rHuADA2 and variants at varying pH were assessed to determine the pH optimum of each. The adenosine deaminase activity was determined spectrophotometrically by direct measurement of changes in adenosine absorbance. […] During the deamination reaction, the absorbance of ADO decreases while that of INO increases with time. Since the dynamic changes in absorbance make it difficult to monitor activity at a single wavelength, the relative ADO activity was determined as a ratio of the ADO peak to isobestic point (i.e. the wavelength where ADO and INO have the same extinction coefficient). The isobestic point, which is 253 nm, remains unchanged and is concentration independent, so that it is the reference point to correct for volume or intensity discrepancies.
To construct the standard curve for ADO and INO, a series of solution mixtures in 0.001% Tween-20 containing different concentrations of ADO and INO were prepared. The total concentration of ADO and INO mix was 50 μM, in 1×PBS (10 mM phosphate, 137 mM NaCl, 2.7 mM KCl), pH 7.4. The samples were scanned with the wavelengths between 220 nm and 300 nm to determine the isosbestic point, where all spectra cross.
For performing the spectrophotometric adenosine deaminase assay of ADA2 and variants, a 2× solution containing 10 mM ADO in 100 mM potassium phosphate buffer (KPB), 0.1% Tween-20 at different pHs (i.e. 5.5, 6, 6.5, 6.75, 7, 7.25, 7.4, 7.75 and 8) were prepared. A separate 2× solution containing 2 μg/mL WT rHuADA2 or variants were prepared in the same 100 mM potassium phosphate buffer (KPB), 0.1% Tween-20 at the respective pH (i.e. 5.5, 6, 6.5, 6.75, 7, 7.25, 7.4, 7.75 and 8). An equal volume of the ADO solution and the ADA2 solution (wildtype or variants) were mixed to initiate reaction. At each time point (i.e. 1, 3, 5, 7, 9, 11, 13 and 15 min), a small aliquot (4 μl) was removed and diluted 50 times by adding to 196 μl 1×PBS, pH 7.4. The diluted samples were further diluted 2 fold (in duplicates) by adding 85 μl samples to 85 μl 1×PBS in a UV-transparent half area plate. The absorbance at 253 nm and 261 nm were measured of each diluted sample.
Adenosine concentration was determined using the A261/A253 ratio and the standard curve. Adenosine deaminase activity was measured by negative change in ADO concentration per min×100.

Molecule	Adenosine deaminase activity Δ [ADO]/min × (−100)
B3	22.84
B4	15.76
B1	24.61
B2	21.11
B5	12.19

Same assay, conditions: pH 5.5 to 8, 5 mM ADO

Molecule	pH optimum (highest deaminase activity)
B1	7.25
B2	approximately 6.5

Same assay, conditions: pH 6

Molecule	Adenosine deaminase activity Δ [ADO]/min × (−100)
B3	25.64
B4	19.15
B1	31.59
B2	22.06
B5	10.68

Same assay, conditions: pH 6.5

Molecule	Adenosine deaminase activity Δ [ADO]/min × (−100)
B3	29.18
B4	27.09
B1	41.30
B2	33.77
B5	14.22

Same assay, conditions: pH 6.75

Molecule	Adenosine deaminase activity Δ [ADO]/min × (−100)
B3	29.47
B4	25.72
B1	44.46
B2	29.76
B5	12.90

Same assay, conditions: pH 7

Molecule	Adenosine deaminase activity Δ [ADO]/min × (−100)
B3	28.53
B4	24.63
B1	45.16
B2	28.70
B5	13.22

Same assay, conditions: pH 7.25

Molecule	Adenosine deaminase activity Δ [ADO]/min × (−100)
B3	21.71
B4	21.88
B1	50.99
B2	24.47
B5	12.86

Same assay, conditions: pH 7.4

Molecule	Adenosine deaminase activity Δ [ADO]/min × (−100)
B3	19.37
B4	18.32
B1	45.81
B2	21.77
B5	10.55

Same assay, conditions: pH 7.75

Molecule	Adenosine deaminase activity Δ [ADO]/min × (−100)
B3	7.41
B4	5.98
B1	25.16
B2	6.65
B5	1.55

Same assay, conditions: pH 8

Molecule	Adenosine deaminase activity Δ [ADO]/min × (−100)
B3	5.33
B4	4.25
B1	3.70
B2	3.58
B5	3.46
